Source: paper PMC5586342, “Mouse glutamate carboxypeptidase II (GCPII) has a similar enzyme activity and inhibition profile but a different tissue distribution to human GCPII” (FEBS Open Bio, 2017)
Where two headings read alike, the source gives them in different places. Each block holds one molecule with its values, some of them ahead of it.

How the values were obtained:
[1] = target: T1, Avi-mGCPII (recombinant extracellular mouse GCPII) (Mus musculus, UniProt O35409); test: HPLC assay of pteroyl-di-L-glutamate cleavage; type: biochemical; conditions: for Ki: read-out: K i (Avi-mGCPII)
T1 construct: gene Folh1; extracellular domain (45-752), N-terminal biotinylated Avi-tag with TEV site, secreted from Drosophila S2 cells, streptavidin mutein purification
Excerpt: HPLC assay of pteroyl-di-L-glutamate cleavage on Avi-mGCPII (recombinant extracellular mouse GCPII)

[2] = target: T2, Avi-hGCPII (recombinant extracellular human GCPII) (Homo sapiens, UniProt Q04609); test: HPLC assay of pteroyl-di-L-glutamate cleavage; type: biochemical; conditions: for Ki: read-out: K i (Avi-hGCPII)
T2 construct: gene FOLH1
T2 sequence (Q04609 44-750 limits assumed): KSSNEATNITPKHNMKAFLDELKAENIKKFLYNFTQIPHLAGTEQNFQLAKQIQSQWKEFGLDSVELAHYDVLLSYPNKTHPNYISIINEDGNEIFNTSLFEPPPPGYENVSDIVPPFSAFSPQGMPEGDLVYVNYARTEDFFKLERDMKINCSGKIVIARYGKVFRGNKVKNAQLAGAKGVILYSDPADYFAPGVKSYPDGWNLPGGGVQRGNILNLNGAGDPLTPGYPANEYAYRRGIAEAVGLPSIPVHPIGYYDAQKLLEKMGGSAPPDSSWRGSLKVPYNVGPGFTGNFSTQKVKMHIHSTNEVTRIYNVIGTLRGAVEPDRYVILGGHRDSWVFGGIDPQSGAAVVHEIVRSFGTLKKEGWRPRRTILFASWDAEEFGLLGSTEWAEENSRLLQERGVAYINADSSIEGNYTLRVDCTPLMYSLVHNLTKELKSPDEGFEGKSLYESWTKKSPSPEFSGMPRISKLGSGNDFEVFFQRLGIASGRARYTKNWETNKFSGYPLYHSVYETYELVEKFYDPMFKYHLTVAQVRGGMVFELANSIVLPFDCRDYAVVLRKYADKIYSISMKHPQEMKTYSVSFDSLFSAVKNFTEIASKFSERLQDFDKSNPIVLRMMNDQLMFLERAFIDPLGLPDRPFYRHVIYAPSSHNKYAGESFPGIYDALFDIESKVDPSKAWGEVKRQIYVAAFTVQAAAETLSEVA
Excerpt: HPLC assay of pteroyl-di-L-glutamate cleavage on Avi-hGCPII (recombinant extracellular human GCPII)

[3] = system: CC(=O)N[C@@H](CC(=O)O)C(=O)N[C@@H](CCC(=O)O)C(=O)O; test: radioenzymatic assay; type: biochemical, Homo sapiens; conditions: […] Bis-Tris propane, […] NaCl, pH […]
Excerpt: radioenzymatic assay on Avi-hGCPII (recombinant extracellular human GCPII)

radioenzymatic assay = substrate: CC(=O)N[C@@H](CC(=O)O)C(=O)N[C@@H](CCC(=O)O)C(=O)O; test: radioenzymatic assay; type: biochemical, Mus musculus; conditions: […] Bis-Tris propane, […] NaCl, pH […]
Excerpt: radioenzymatic assay on Avi-mGCPII (recombinant extracellular mouse GCPII)

HPLC assay = substrate: Nc1nc2ncc(CNc3ccc(C(=O)N[C@@H](CCC(=O)N[C@@H](CCC(=O)O)C(=O)O)C(=O)O)cc3)nc2c(=O)[nH]1; test: HPLC assay; type: biochemical, Mus musculus; conditions: […] Bis-Tris propane, […] NaCl, pH […]
Excerpt: HPLC assay on Avi-mGCPII (recombinant extracellular mouse GCPII)

[4] = substrate pteroyl-di-L-glutamate ([…] final), […] Bis-Tris propane, […] NaCl, pH […] °C

Molecule: O=C(O)CCC(CP(=O)(O)O)C(=O)O (centres unmarked) [2-PMPA, 2‐(phosphonomethyl)pentanedioic acid]
Ki [1, 4]: 0.56 ± 0.05 nM

Ki [1]: 0.1 ± 0.01 nM
Ki [2, 4]: 0.018 ± 0.002 nM
Molecule: O=C(O)CCc1ccc(O)c(CN(CCN(CC(=O)O)Cc2cc(CCC(=O)NCCCCCC(=O)NCCCC[C@H](NC(=O)N[C@@H](CCC(=O)O)C(=O)O)C(=O)O)ccc2O)CC(=O)O)c1 [DKFZ-PSMA-11]

Molecule: N[C@@H](Cn1oc(=O)[nH]c1=O)C(=O)O [Quisqualate]
Ki [1]: 580 ± 60 nM
Ki [2]: 520 ± 80 nM

Ki [1]: 5.9 ± 0.9 nM
Molecule: CC(C)C[C@H](NC(=O)N[C@@H](CCC(=O)O)C(=O)O)C(=O)O [ZJ-43, (S)‐2‐(3‐((S)‐1‐carboxy‐3‐methylbutyl)ureido)pentanedioic acid]

K i (Avi-mGCPII) (nM) [1, 4]: 24 000 ± 3000 nM
K i (Avi-hGCPII) (nM) [2, 4]: 16 000 ± 5000 nM
Molecule: O=C(O)CC[C@H](NC(=O)C(O)(CC(=O)O)CC(=O)O)C(=O)O [β-citryl-L-glutamate]

Molecule: Avi-hGCPII (recombinant extracellular human GCPII) (Homo sapiens)
Km [3]: 0.55 ± 0.06 µM
kcat [3]: 1.45 ± 0.04 s⁻¹
kcat/Km [3]: 2.65e+06 ± 70000 M⁻¹ s⁻¹

B1: Avi-mGCPII (recombinant extracellular mouse GCPII) (Mus musculus) (protein)
chain: KPSNEATGNVSHSGMKKEFLHELKAENIKKFLYNFTRTPHLAGTQNNFELAKQIHDQWKEFGLDLVELSHYDVLLSYPNKTHPNYISIINEDGNEIFKTSLSEQPPPGYENISDVVPPYSAFSPQGTPEGDLVYVNYARTEDFFKLEREMKISCSGKIVIARYGKVFRGNMVKNAQLAGAKGMILYSDPADYFVPAVKSYPDGWNLPGGGVQRGNVLNLNGAGDPLTPGYPANEHAYRHELTNAVGLPSIPVHPIGYDDAQKLLEHMGGPAPPDSSWKGGLKVPYNVGPGFAGNFSTQKVKMHIHSYTKVTRIYNVIGTLKGALEPDRYVILGGHRDAWVFGGIDPQSGAAVVHEIVRSFGTLKKKGRRPRRTILFASWDAEEFGLLGSTEWAEEHSRLLQERGVAYINADSSIEGNYTLRVDCTPLMYSLVYNLTKELQSPDEGFEGKSLYDSWKEKSPSPEFIGMPRISKLGSGNDFEVFFQRLGIASGRARYTKNWKTNKVSSYPLYHSVYETYELVVKFYDPTFKYHLTVAQVRGAMVFELANSIVLPFDCQSYAVALKKYADTIYNISMKHPQEMKAYMISFDSLFSAVNNFTDVASKFNQRLQELDKSNPILLRIMNDQLMYLERAFIDPLGLPGRPFYRHIIYAPSSHNKYAGESFPGIYDALFDISSKVNASKAWNEVKRQISIATFTVQAAAETLREVA
notes: extracellular domain (45-752), N-terminal biotinylated Avi-tag with TEV site, secreted from Drosophila S2 cells, streptavidin mutein purification
Km (radioenzymatic assay): 1.9 ± 0.1 µM
kcat (radioenzymatic assay): 1.44 ± 0.02 s⁻¹
kcat/Km (radioenzymatic assay): 770000 ± 10000 M⁻¹ s⁻¹
Km (HPLC assay): 0.29 ± 0.02 µM
kcat (HPLC assay): 3.63 ± 0.09 s⁻¹
kcat/Km (HPLC assay): 1.26e+07 ± 800000 M⁻¹ s⁻¹
